Consider three molecules from US20220119534A1 (DRAGONFLY THERAPEUTICS, published 2022).

The Kd is the free concentration of one partner at which half of the binding sites on the other are occupied at equilibrium, for simple one-to-one binding. One may read the koff as the first-order rate constant of dissociation. One may read the kon as the second-order rate constant of association. What is called EC50 is the concentration needed to bring the measured effect to its halfway point. A lower EC50 goes with higher potency in that assay.

Where a chain is given by its changes, count along the chain named. Numbers in names are those of the source. Where “and” joins values, the source holds several entries; their conditions need not be identical. Equal values may be shown once.

Experiment [1] deals with T1, Human CLEC12A-His (human, UniProt Q5QGZ9 65-265).
T1 construct: Recombinant soluble protein made in house (Dragonfly Tx); The hCLEC12A spot of the HuProt array is written under this molecule as well; also called hCLEC12A-His; hCLEC12A; not shown: His tag
T1 sequence: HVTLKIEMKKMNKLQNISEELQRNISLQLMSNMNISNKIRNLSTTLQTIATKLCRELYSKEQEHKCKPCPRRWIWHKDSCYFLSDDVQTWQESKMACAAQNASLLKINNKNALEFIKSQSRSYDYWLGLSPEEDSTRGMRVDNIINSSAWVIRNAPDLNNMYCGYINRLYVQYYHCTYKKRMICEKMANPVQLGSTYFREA
Nature of the experiment: SPR Biacore 8K 37 C; TriNKET captured on anti-hFc chip, hCLEC12A-His as analyte; 1:1 fit; pH 8.0 control, n=2.

Experiment [2] deals with T2, mFc-hNKG2D (human, UniProt P26718 73-216).
T2 construct: extracellular domain; Made in house (Dragonfly Tx); the order of tag and ECD follows the name mFc-hNKG2D; also called mFc-tagged human NKG2D; not shown: mouse Fc tag
T2 sequence (looked up): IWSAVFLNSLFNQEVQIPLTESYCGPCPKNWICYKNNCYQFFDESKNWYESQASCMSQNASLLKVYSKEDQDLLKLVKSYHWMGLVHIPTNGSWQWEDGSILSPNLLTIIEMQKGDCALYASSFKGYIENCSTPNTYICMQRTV
Briefly: SPR Biacore 8K 37 C; mFc-hNKG2D captured on anti-mFc chip, TriNKET as analyte; kinetics fit.

In experiment [3] the target is T3, Human CLEC12A-His (recombinant, K244 WT) (human, UniProt Q5QGZ9 65-265).
T3 construct: Made in house (Dragonfly Tx); also called hCLEC12A; hCLEC12A-His; not shown: His tag
T3 sequence: T1 sequence
Briefly: SPR, two-state fit (ka1); control sample. In general terms: SPR reads the build-up and loss of mass on a sensor chip optically.

In another experiment the target is T4, Human CD32b (FcγRIIb) (human, UniProt P31994 46-217, limits assumed, biotinylated).
T4 construct: Bought recombinant receptor; also called hFcγRIIb; CD32b (FcγR2b)
T4 sequence (looked up): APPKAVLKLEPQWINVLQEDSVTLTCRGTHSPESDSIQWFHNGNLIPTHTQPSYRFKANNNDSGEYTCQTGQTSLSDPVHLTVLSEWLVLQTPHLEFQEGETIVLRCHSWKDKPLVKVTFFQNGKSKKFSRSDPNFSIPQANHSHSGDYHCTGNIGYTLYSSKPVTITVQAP
Nature of the experiment: SPR 25C, average.

Experiment [4] addresses T3, Human CLEC12A-His (recombinant, K244 WT). Nature of the experiment: SPR, two-state fit; control sample.
Experiment [5] has as its target T5, Human CD16a V158 (FcγRIIIa V158) (human, UniProt P08637 17-208, biotinylated).
T5 construct: Bought recombinant receptor; also called hCD16aV; hFcγRIIIa V158
Nature of the experiment: SPR; control sample.

The target in experiment [6] is T6, mFc-hNKG2D (recombinant mFc-tagged human NKG2D dimer) (human, UniProt P26718 73-216).
T6 construct: extracellular domain; Made in house; not shown: mouse Fc tag
T6 sequence (looked up): T2 sequence (looked up)
Briefly: SPR; control sample.

For experiment [7], the target named is T7, Human CLEC12A expressed on cells (Ba/F3-hCLEC12A, PL21, HL60) (human, UniProt Q5QGZ9 1-265).
T7 sequence: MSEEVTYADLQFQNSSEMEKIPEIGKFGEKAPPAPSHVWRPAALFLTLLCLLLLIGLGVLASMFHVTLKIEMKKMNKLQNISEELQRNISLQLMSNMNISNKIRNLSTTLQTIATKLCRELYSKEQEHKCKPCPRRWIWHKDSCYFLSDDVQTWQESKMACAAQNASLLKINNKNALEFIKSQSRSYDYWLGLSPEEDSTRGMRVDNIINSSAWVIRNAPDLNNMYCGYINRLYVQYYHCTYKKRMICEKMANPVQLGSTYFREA
Nature of the experiment: cell-based or functional assay.

In another experiment the target is T8, Human CLEC12A-K244Q-His (human, UniProt Q5QGZ9 65-265).
T8 construct: Polymorphic variant; also called hCLEC12A (Q244); not shown: His tag
T8 chain: T1 sequence with K180Q
Briefly: SPR, hCLEC12A (Q244) variant.

Experiment [8] addresses T9, human CLEC12A on cells (HL60, PL21, Ba/F3-hCLEC12A) (human, UniProt Q5QGZ9 1-265).
T9 construct: Endogenous on the AML lines HL60 and PL21; brought into mouse Ba/F3 cells by retroviral transduction; The cell line stands under assay; also called CLL-1
T9 sequence: T7 sequence
Briefly: flow cytometry, HL60 cells. (In general: A flow cytometer gives signals particle by particle.)

Experiment [9] addresses T10, Human CLEC12A-His (human, UniProt Q5QGZ9 65-265).
T10 construct: Recombinant soluble protein made in house; also called hCLEC12A-His; hCLEC12A; not shown: His tag
T10 sequence: T1 sequence
Briefly: SPR; sample after pH 8.0, 40 C, 2 weeks.

In the next experiment the target is T11, Human CD16a V158 (human, UniProt P08637 17-208, biotinylated).
T11 construct: Bought recombinant receptor; also called hCD16a (V158); hFcγRIIIa V158
Nature of the experiment: SPR; sample after pH 8.0, 40 C, 2 weeks.

In experiment [10] the target is T12, mFc-hNKG2D (human, UniProt P26718 73-216).
T12 construct: extracellular domain; Recombinant mFc-tagged NKG2D dimer, made in house; also called human NKG2D; not shown: mouse Fc tag
T12 sequence (looked up): T2 sequence (looked up)
Briefly: SPR; sample after pH 8.0, 40 C, 2 weeks.

T5 sequence (P08637 17-208 F176V limits assumed): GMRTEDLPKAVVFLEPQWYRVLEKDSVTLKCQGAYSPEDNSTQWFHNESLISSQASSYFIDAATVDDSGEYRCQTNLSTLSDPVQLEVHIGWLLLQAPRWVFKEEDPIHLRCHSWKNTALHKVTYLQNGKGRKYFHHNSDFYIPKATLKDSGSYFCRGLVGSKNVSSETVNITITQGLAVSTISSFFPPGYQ
T11 sequence (P08637 17-208 F176V limits assumed): as above

B1: F3'-1602 TriNKET (bispecific antibody, human IgG1, kappa)
chain: QLQLQESGPGLVKPSETLSLTCTVSGFSLTNYGLHWIRQPPGKCLEWIGVIWSGGKTDYNPSLKSRVTISKDTSKNQFSLKLSSVQAADTAVYYCAKYDYDDSLDYWGQGTLVTVSSGGGGSGGGGSGGGGSGGGGSDIQMTQSPSSLSASVGDRVTITCHASQNINFWLSWYQQKPGKAPKLLIYEASNLHTGVPSRFSGSGSGTRFTLTISSLQPEDIATYYCQQSHSYPLTFGCGTKLEIKGSDKTHTCPPCPAPELLGGPSVFLFPPKPKDTLMISRTPEVTCVVVDVSHEDPEVKFNWYVDGVEVHNAKTKPREEQYNSTYRVVSVLTVLHQDWLNGKEYKCKVSNKALPAPIEKTISKAKGQPREPRVYTLPPCRDELTKNQVSLTCLVKGFYPSDIAVEWESNGQPENNYKTTPPVLVSDGSFTLYSKLTVDKSRWQQGNVFSCSVMHEALHNHYTQKSLSLSPG
heavy: EVQLVESGGGLVKPGGSLRLSCAASGFTFSSYSMNWVRQAPGKGLEWVSSISSSSSYIYYADSVKGRFTISRDNAKNSLYLQMNSLRAEDTAVYYCARGAPIGAAAGWFDPWGQGTLVTVSSASTKGPSVFPLAPSSKSTSGGTAALGCLVKDYFPEPVTVSWNSGALTSGVHTFPAVLQSSGLYSLSSVVTVPSSSLGTQTYICNVNHKPSNTKVDKKVEPKSCDKTHTCPPCPAPELLGGPSVFLFPPKPKDTLMISRTPEVTCVVVDVSHEDPEVKFNWYVDGVEVHNAKTKPREEQYNSTYRVVSVLTVLHQDWLNGKEYKCKVSNKALPAPIEKTISKAKGQPREPQVCTLPPSRDELTENQVSLTCLVKGFYPSDIAVEWESNGQPENNYKTTPPVLDSDGSFFLYSWLTVDKSRWQQGNVFSCSVMHEALHNHYTQKSLSLSPG
light: DIQMTQSPSSVSASVGDRVTITCRASQGISSWLAWYQQKPGKAPKLLIYAASSLQSGVPSRFSGSGSGTDFTLTISSLQPEDFATYYCQQGVSFPRTFGGGTKVEIKRTVAAPSVFIFPPSDEQLKSGTASVVCLLNNFYPREAKVQWKVDNALQSGNSQESVTEQDSKDSTYSLSSTLTLSKADYEKHKVYACEVTHQGLSSPVTKSFNRGEC
notes: Trispecific F3' format: CLEC12A scFv-Fc paired with NKG2D Fab-Fc; Stressed and control samples of the stability studies are the same molecule; also called AB0237
Take B1: in the experiment with Human CLEC12A-His [1], the Kd was determined as 1.1 nM, the koff was 0.00084 s⁻¹ and the kon came out at 801000 M⁻¹ s⁻¹. In the experiment with mFc-hNKG2D [2], the Kd is 703 nM and 705 nM and 745 nM and 732 nM.

B2: AB0089 TriNKET (bispecific antibody, human IgG1, kappa)
chain: B1 chain with S53V, K56A, K71V, Y98G, D101G, S103T, R207D, I220F
heavy: B1 heavy
light: B1 light
notes: F3' format heterodimer of three chains; human IgG1 Fc with EW-RVT and Y349C/S354C mutations; also called AB0089 Lot AB0089-002; CLEC12A TriNKET AB0089
For B2, the results for the kon in [3], in experiment [5] and in [6] were 1.01e+07 M⁻¹ s⁻¹, 85300 M⁻¹ s⁻¹ and 175000 M⁻¹ s⁻¹, respectively. For the same molecule, the Kd was 6300 nM in the experiment with Human CD32b (FcγRIIb), 0.9 nM in [4], 323 nM in [5] and 772 nM in experiment [6]. The koff in [5] amounted to 0.0276 s⁻¹; in [6], 0.135 s⁻¹. Besides, the “EC50, rested NK cell lysis of PL21 cells (mean of six donors)” value in [7] stood at 0.25 nM.

B3: AB0192 TriNKET (other)
chain: EVQLVESGGGVVQPGGSLRLSCAASGFTFNAFGMHWVRQAPGKCLEWVAFISSGSTSIYYANTVKGRFTISRDNSKNTLYLQMNSLRAEDTAVYYCARDGYPTGGAMDYWGQGTSVTVSSGGGGSGGGGSGGGGSGGGGSDIQMTQSPSSLSASVGDRVTITCKASQDIYNYLSWFQQKPGKAPKPLIYRANILVSGVPSRFSGSGSGQDYTFTISSLQPEDIATYYCLQFDAFPFTFGCGTKLEIKGSDKTHTCPPCPAPELLGGPSVFLFPPKPKDTLMISRTPEVTCVVVDVSHEDPEVKFNWYVDGVEVHNAKTKPREEQYNSTYRVVSVLTVLHQDWLNGKEYKCKVSNKALPAPIEKTISKAKGQPREPRVYTLPPCRDELTKNQVSLTCLVKGFYPSDIAVEWESNGQPENNYKTTPPVLVSDGSFTLYSKLTVDKSRWQQGNVFSCSVMHEALHNHYTQKSLSLSPG
heavy: B1 heavy
light: B1 light
notes: the condition stands under assay; also called AB0192 Lot AB0192-005
As to B3, the Kd is 4.51 nM with Human CLEC12A-K244Q-His, 1.66 nM with Human CLEC12A-His [9], 173 nM with Human CD16a V158 and 779 nM with mFc-hNKG2D [10]. Also, the koff in the experiment with Human CLEC12A-K244Q-His is 0.0037 s⁻¹; with Human CLEC12A-His [9], 0.00128 s⁻¹; with Human CD16a V158, 0.0191 s⁻¹; with mFc-hNKG2D [10], 0.121 s⁻¹. In addition, the kon came out at 824000 M⁻¹ s⁻¹ with Human CLEC12A-K244Q-His, 768000 M⁻¹ s⁻¹ in the experiment with Human CLEC12A-His [9], 110000 M⁻¹ s⁻¹ in the experiment with Human CD16a V158 and 156000 M⁻¹ s⁻¹ in the experiment with mFc-hNKG2D [10]. A half-maximal response in experiment [8] (EC50) required 0.61 nM. In addition, the “FOB (fold over background)” value in experiment [8] is 42 fold.
